Reference: patent publication US20230174642A1, “AFFINITY-MATURATED ANTI-ASIC1a ANTIBODIES” (SHANGHAITECH UNIVERSITY, priority 2019, published 2023)
Residue numbers refer to the chain shown, from its start.

T1: human ASIC1b (hASIC1b-eYFP) (Homo sapiens, UniProt P78348)
T1 construct: expressed in transfected cells; host or cells: CHO-K1 (transient)
T1 sequence (P78348 1-562 isoform P78348-3): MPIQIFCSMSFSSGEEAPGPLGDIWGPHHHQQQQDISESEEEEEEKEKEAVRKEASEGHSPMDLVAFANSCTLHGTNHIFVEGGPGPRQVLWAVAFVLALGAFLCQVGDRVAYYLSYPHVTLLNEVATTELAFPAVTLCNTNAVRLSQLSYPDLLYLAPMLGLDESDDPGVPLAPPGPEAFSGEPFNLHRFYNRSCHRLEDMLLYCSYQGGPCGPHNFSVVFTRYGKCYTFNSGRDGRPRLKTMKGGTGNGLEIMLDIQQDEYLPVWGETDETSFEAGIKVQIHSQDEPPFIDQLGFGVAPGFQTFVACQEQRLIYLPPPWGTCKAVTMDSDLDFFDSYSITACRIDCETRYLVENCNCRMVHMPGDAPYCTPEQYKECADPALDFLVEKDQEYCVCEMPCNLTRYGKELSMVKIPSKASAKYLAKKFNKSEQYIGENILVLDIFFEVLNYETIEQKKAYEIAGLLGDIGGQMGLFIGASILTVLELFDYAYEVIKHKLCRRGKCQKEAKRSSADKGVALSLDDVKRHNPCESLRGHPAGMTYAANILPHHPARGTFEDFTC

T2: recombinant extracellular domain of hASIC1a (hASIC1a-ECD) (Homo sapiens, UniProt P78348)
T2 construct: recombinant extracellular domain of hASIC1a(hASIC1a-ECD)
T2 sequence (P78348 67-427 limits assumed): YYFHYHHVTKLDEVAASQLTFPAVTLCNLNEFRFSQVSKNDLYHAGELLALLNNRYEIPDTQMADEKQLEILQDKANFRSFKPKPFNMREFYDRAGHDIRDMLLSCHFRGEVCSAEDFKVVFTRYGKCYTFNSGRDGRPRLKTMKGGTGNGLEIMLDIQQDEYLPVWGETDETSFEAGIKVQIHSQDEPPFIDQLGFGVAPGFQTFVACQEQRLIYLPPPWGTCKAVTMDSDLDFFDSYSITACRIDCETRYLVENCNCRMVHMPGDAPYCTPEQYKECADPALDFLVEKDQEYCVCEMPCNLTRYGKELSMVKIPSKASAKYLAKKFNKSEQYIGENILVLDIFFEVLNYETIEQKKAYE

T3: mouse ASIC1a-eYFP (mASIC1a-eYFP) on transiently transfected CHO-K1 cells (mouse, UniProt Q6NXK8 1-526)
T3 construct: whole, on cells; not shown: eYFP fusion partner
T3 sequence (looked up): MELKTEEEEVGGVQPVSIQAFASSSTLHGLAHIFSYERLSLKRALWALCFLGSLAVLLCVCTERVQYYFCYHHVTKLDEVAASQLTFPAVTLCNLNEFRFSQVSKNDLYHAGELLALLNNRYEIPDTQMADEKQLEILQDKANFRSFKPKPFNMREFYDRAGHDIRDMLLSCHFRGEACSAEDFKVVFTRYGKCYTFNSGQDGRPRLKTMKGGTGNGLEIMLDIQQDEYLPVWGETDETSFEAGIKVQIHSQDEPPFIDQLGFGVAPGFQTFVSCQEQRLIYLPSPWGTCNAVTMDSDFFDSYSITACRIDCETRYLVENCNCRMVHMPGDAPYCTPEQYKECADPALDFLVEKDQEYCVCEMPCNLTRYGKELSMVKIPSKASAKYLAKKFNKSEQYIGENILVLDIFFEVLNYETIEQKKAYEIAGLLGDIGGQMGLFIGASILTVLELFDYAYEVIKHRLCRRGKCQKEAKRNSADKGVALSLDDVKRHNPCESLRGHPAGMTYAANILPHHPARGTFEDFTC

B1: ASC06-01-IgG1: affinity-matured ASC06 derivative, VH-CDR3 DSYFGYSKGD (SEQ ID NO: 11) (antibody, V domains shown)
VH: QVQLQQSGGGLVQPGGSLRLSCAASGFTFSSYAMSWVRQAPGKGLEWVSAISGSGGSTYYADSVKGRFTISRDNSKNTLYLQMNSLRAEDTAVYYCAKDSYFGYSKGDWGQGTLVTVSS
VL: QSALTQPASVSGSPGQSITISCTGTSSDVGAYNYVSWYQQQPGKAPKLMIYGVSNRPSGVSNRFSGSKSGNAASLTISGLQAEDEADYYCSSYTSSSTYVFGTGTKLTVLG
B2: ASC06-03-IgG1: affinity-matured ASC06 derivative, VH-CDR3 DSFYGRAKGS (SEQ ID NO: 15) (antibody, V domains shown)
VH: B1 VH with Y101F, F102Y, Y104R, S105A, D108S
VL: B1 VL
B3: ASC06-IgG1: parental (WT) ASIC1a-specific antagonist antibody; VL SEQ ID NO: 2, VH SEQ ID NO: 7, VH-CDR3 DSFYGYSKGD (antibody, V domains shown)
VH: B1 VH with Y101F, F102Y
VL: B1 VL
modifications: IgG1 constant regions; Amino acid sequence VH of ASC06; Amino acid sequence VL of ASC06
B4: ASC06-02-IgG1: affinity-matured ASC06 derivative, VH-CDR3 DSFFGRAKGS (SEQ ID NO: 13) (antibody, V domains shown)
VH: B1 VH with Y101F, Y104R, S105A, D108S
VL: B1 VL
B5: ASC06-04-IgG1: affinity-matured ASC06 derivative, VH-CDR3 DSFYGRAKGV (SEQ ID NO: 17) (antibody, V domains shown)
VH: B1 VH with Y101F, F102Y, Y104R, S105A, D108V
VL: B1 VL
B6: ASC06-03-IgG1 (antibody, V domains shown)
VH: B1 VH with Y101F, F102Y, Y104R, S105A, D108S
VL: B1 VL
notes: Full length IgG1
B7: ASC06-02-IgG1 (antibody, V domains shown)
VH: B1 VH with Y101F, Y104R, S105A, D108S
VL: B1 VL
notes: Full length IgG1
B8: ASC06-04-IgG1 (antibody, V domains shown)
VH: B1 VH with Y101F, F102Y, Y104R, S105A, D108V
VL: B1 VL
notes: Full length IgG1
B9: ASC06-IgG1 (antibody, V domains shown)
VH: B1 VH with Y101F, F102Y
VL: B1 VL
notes: Tested as full length IgG1; also called WT antibody ASC06-IgG1; parental ASC06-IgG1 antibody
B10: ASC06-01-IgG1 (antibody, V domains shown)
VH: B1 VH
VL: B1 VL
notes: Full length IgG1

molecular target: T1, human ASIC1b (hASIC1b-eYFP); test: FACS-based binding assay, transiently transfected CHO-K1 cells (isotype selectivity); conditions: not given
Description: (§1) To examine the ASIC isotype selectivity of ASC06-IgG1 affinity-matured antibodies, plasmids encoding fusion proteins of eYFP with isoforms of […] were constructed. These plasmids included those encoding human ASIC1b (hASIC1b-eYFP), human ASIC2a (hASIC2a-eYFP), and human ASIC3a (hASIC3a-eYFP). CHO-K1 cells were transiently transfected with these plasmids and used in a FACS-based binding assay disclosed herein. Binding of ASC06-IgG1 to CHO-K1 cells expressing human ASIC1a-eYFP (hASIC1a-eYFP) was used as a positive control (data not shown and FIG. 2), and an isotype control was used as a negative control for binding (NC).

| Molecule | binding to the hASIC1b isoform |
| --- | --- |
| B1 | no detectable binding |
| B2 | no detectable binding |
| B3 | no detectable binding |
| B4 | no detectable binding |
| B5 | no detectable binding |

molecular target: T2, recombinant extracellular domain of hASIC1a (hASIC1a-ECD); test: Biacore T200 binding affinity measurement; conditions: Biacore T200, hASIC1a immobilized, antibody as analyte
Protocol: Binding affinities of four affinity-matured antibodies in IgG1 format (ASC06-01-IgG1 through ASC06-04-IgG1) to the recombinant extracellular domain of hASIC1a(hASIC1a-ECD) were measured using the Biacore T200™ (GE Healthcare). The ASC06-IgG1 antibody was used as a positive control. All manipulations were followed by the user guide of manufacturer. Briefly, was hASIC1a was immobilized, and serial dilutions of the indicated antibodies were added as analytes. The analysis of the results were processed in BIA Evaluation Software™.

| Molecule | Ka |
| --- | --- |
| B1 | 9.7e+06 M⁻¹ s⁻¹ |
| B2 | 680000 M⁻¹ s⁻¹ |
| B3 | 4.7e+06 M⁻¹ s⁻¹ |
| B4 | 1.3e+07 M⁻¹ s⁻¹ |
| B5 | 620000 M⁻¹ s⁻¹ |

molecular target: T3, mouse ASIC1a-eYFP (mASIC1a-eYFP) on …; test: FACS on transiently transfected CHO-K1 cells; conditions: not given
Protocol: To investigate the species selectivity of ASC06-IgG1 affinity-matured antibodies, plasmids encoding fusion proteins of eYFP with […] homologs of ASIC1a were constructed. These plasmids included those encoding human ASIC1a (hASIC1a-eYFP), mouse ASIC1a (mASIC1a-eYFP), and rat ASIC1a (rASIC1a-eYFP). CHO-K1 cells were transiently transfected with the ASIC1a-eYFP plasmids, and a fluorescence activated cell sorting (FACS)-based binding assay was carried out to determine binding to the homologs or isoforms of ASIC1a expressed on the cell surface. An isotype control was used as a negative control for binding (NC). ASC06-IgG1 was used as a positive control. Summarily, the CHO-K1 cells expressing the ASIC1a-eYFP (green) homologs were stained with the indicated antibody (red) and subjected to FACS.
as §1

| Molecule | binding result |
| --- | --- |
| B6 | binds |
| B7 | binds |
| B8 | binds |
| B9 | binds |
| B10 | binds |
